Data reported in patent US20170319655A1.

Experiments:
[1] = biological target: flagellin on flagellin-expressing Pseudomonas aeruginosa wild type bacteria (Pseudomonas aeruginosa); assay: cell-based or functional assay
[2] = biological target: MUC1-ED on Ad-NEU1-infected airway epithelial cells (A549 cells; SAECs), desialylated by overexpressed NEU1 (human) (UniProt P15941); assay: cell-based or functional assay

## MUC1-ED from supernates of airway ECs cultured with the O-glycosylation inhibitor GalNAc-O-bn (from UniProt P15941 24-1158) (receptor)
[1]
  reduction of Pa adhesion to A549 monolayers, against its control: 88%

## flagellin on flagellin-expressing Pseudomonas aeruginosa wild type bacteria (ligand)
[2]
  Pa adhesion to Ad-NEU1-infected A549 cells (CFUs bound), against Ad-GFP-infected ECs: 2 fold
  Pa adhesion to Ad-NEU1-infected SAECs (CFUs bound), against Ad-GFP-infected SAECs: 3.4 fold

## E. coli-expressed deglycosylated MUC1-ED (from E. coli transformed with pMUC1) (from UniProt P15941 24-1097) (receptor)
[1]
  reduction of Pa adhesion to A549 monolayers, against the empty vector control: 93%

## desialylated shed MUC1-ED from culture supernates of Ad-NEU1-infected A549 cells (from UniProt P15941 24-1158) (receptor)
[1]
  MUC1-ED concentrations capable of inhibiting Pa adhesion in vitro: < 0.63 µg/mL
  reduction of Pa adhesion to A549 monolayers, against MUC1-ED from Ad-GFP-infected ECs: 65%

## desialylated MUC1-ED in bronchoalveolar lavage fluids (BALFs) from Pa-colonized patients (from UniProt P15941 24-1158) (receptor)
[1]
  inhibition of Pa adhesion to A549 cells, against BALFs from noncolonized subjects: 52.9%
  inhibition of Pa adhesion to A549 cells, against BALFs from patients colonized with nonPa microorganisms: 42.1%

## shed MUC1-ED from culture supernates of flagellin-stimulated A549 cells (from UniProt P15941 24-1158) (receptor)
[1]
  MUC1-ED concentrations capable of inhibiting Pa adhesion in vitro: < 0.63 µg/mL
